Assay: label from the status in PepcDB records

Row | Sequence | protein production
1 | MAQVEAPVIGITVLYFLAIIIIGYYSRQRLKSATDYYVAGRQVGAVVNGLALESTYLSPASMLGLPAYIFILGYPFWWAMSAIIAGMPIATLLTASALRKYAPTSFADYYADRYNDQRLRWLVGIVTVIGAVLYITLSLVGMALFLLAVAKVPYIIGLIVGTIIVMLYVVWGGMIATSWNAAFQAFLMTVAAVIAAAVIVIKLGGLGGFYEAVLANNPKFWNTPSDPEPPHLLSGTWIAVIGWFFVWHYGFATMPYTVVRFFTTMDIKTARRSIFWCTLAAGIFYMALEIIGAASKLMIETGPMGGEGANAVKILQSYMAQYGVGGWTDYSMIAAVEALQNPWVLGILCAGGLAIAMSTAAGWVMVVNTLLTRDWGDMLLKSKFAKEKPVTLARIISVIFLIVGFLVAINPPGLVLDLSGWAFVVIISALGPGLVLGLWWKRATRAAMWTTAIVMTPLHLYAWLKAKLVLGHHAFFFLNDVLFGNAKALITPHQVWAIPVGFLLFIIVSLITKPVEEEAVQKYCVELTKEV | failed
2 | MVTSTELTGQTAGVPDAGLVERALAYVREKADGEKPTTLPTGETVLSHAEGMLRILDGLRVDDAARAAACLFPMVAFVPGVEAHIEERFGEDVARLVKGVRQLLRIGAIATQAEAVETSKSQAAARQEQVEALRKMLLAFAQDIRVVLVRLASRLQTLRWLAQTKSQPLPGVARETLDIYAPLANRLGIWQMKWELEDLAFRFEQPETYKRIAKLLDEKRIEREGYISQAIARLQSELAAAGIRAEVTGRPKHIYSIWKKMRGKALDFADLYDVRAFRVIVDDIKDCYTVLGIVHHIWQPIPREFDDYISRPKANGYKSLHTVVIGDDGRAFEVQIRTHEMHHFAEYGVAAHWRYKEAGGKGYSGQFTADNSYDEKIAWLRQLLAWKDDADHTVTHEDSPWEQLKHAAIDDHIYVLTPQARVVALPQGATPVDFAYYLHSDLGHRCRGARVDGAMVPLNTPLKNGQTVEIVAVKQGGPSRDWLNPELGYLASSRARAKVRAWFNALDSQETIAQGRALIEKTLQREGKTAVNLDDLATRLNFKTPDDLFAAVAKEEFSLRHVEQALRHPDGEVQPQFSEEEAVTKKSRATSVARGAKSGVLVVGVDSLMTQMSRCCKPAPPDDIVGFVTRGRGVSIHRRNCHTFQQLSTRDPERVIQTEWGKRSDAVYPVDIQVEAIDRQGLLRDISEVLSREKINVTGVKTLSSKGVARMQFTAEVAEATQLQRAISLIEEVQGVLHAKRK | failed
3 | MELNISESRSRSIRCIVKLGGAAITCKNELEKIHDENLEVVACQLRQAMLEGSAPSKVIGMDWSKRPGSSEISCDVDDIGDQKSSEFSKFVVVHGAGSFGHFQASRSGVHKGGLEKPIVKAGFVATRISVTNLNLEIVRALAREGIPTIGMSPFSCGWSTSKRDVASADLATVAKTIDSGFVPVLHGDAVLDNILGCTILSGDVIIRHLADHLKPEYVVFLTDVLGVYDRPPSPSEPDAVLLKEIAVGEDGSWKVVNPLLEHTDKKVDYSVAAHDTTGGMETKISEAAMIAKLGVDVYIVKAATTHSQRALNGDLRDSVPEDWLGTIIRFSK | failed
4 | MSVLPCFSLMCSLSLGEVKAVKIKPMLARLQSAMGRDDLIDQMVLLPEPQKGQTTQSINLIVGYDASPNSHTALDIACWIAHQTRLATNQQVTVQAVYVVEDSNTKNRSNILSFAKRLPTIELPPSETKKSSTSVITQPKLTGIKSYLQTDTLTPLQEADRIIWQARTLAEEWQGSFKSHLRFGCVSTELRKVAEFEAADILFLGCKSVYHPLIETLGYNFPCAVLGIPECIDE | failed
5 | MSLSQEMIKKWLDEEGFLRMEVPDENARFHYVVNYPEDHVIDIIQPAGKDDMILIACATSVSPEHQAGIRALSMEKRTEFIWKVRFTLNRFGVDFQLDHPENVLNSYLVTDEIFFDGLSKDRLISSIKNVFRAKLQVMWMIQERFGEERPEHDSMYVEGHHHHHH | not failed
6 | MAAPVVVAPAINLQHMDLPEGNEDVAAVLQTSTQRWLNAAEWSILYNNHNLFPESNSFTIPIEVEGLYRVDNRFNQDSNTWRNTSAPSTCKNAINFYNVRIATGLYRFDDDGDIVMDAEVQGGWVLCRKTVRNRGHCGTRLSHLYKPVFDRQFKMLKIHMMEDMIKDGEEKSLDTFVISRQLTTFTDLTGWAFGSSVIVEFKVRLEHLRGKSIPIA | failed
7 | MMPNRNTNMLLAYKRLPNWTANSIPETLLNPHNTKVGTWEQLTVLSGKLDVYFFDKDDHVLEKLTFDKDSQMPFIQPQVCYKIEPASNDLECHLTLYCQKGDYFNKKYGMTKTHSEVLFSAPYLKENSKILDLGSGQGRNSLYLTMLGHDVTSVDTNEQSLIHLKNIANEENLPSKINWYDINTANLQETYDFILSTVVFMFLNRPVVPDIIKDMQKHTAIGGYNLIVCAMDTKSYPCPIPFPFTFKKGELKDYYKEWYLIKYNEDLGQLHKTDANGNRLQMQFATLLAKKVK | failed
8 | MADVENQQDSSFPVKRKSDLFCQDQDNVTNKAQKLNPSLNSADSESKDGETNGSGQIENLNSSTEETIGAESSVLSEKAAEEVESGVIGDVGAEEEQEDEEDEEEDDEEEEEEEEVVDRKGKGISREDKGKGKMIEVEESDDEDDSDDDEDDEGFDEDDESDFSDDPLAEVDLDNILPSRTRRRSSQPGVFIPNEFSNRHVNDEDDESSDSDA | failed
9 | MLNLSSIMKPNEIMKNWIDPEAKAEAERYDNPIPSRTLILTTLEQLDLPQSHAELVDHFDIHDQKSIDALSHRLIAMVRDGQLSKDGFKFQPIGEQPTFDATVYINNKGFGSAHIDGQNDLLLPERELRLVFNGDRVKVRQTSVDRKGKAWGFITEVTQHRVKQLIGKLAVHEGEYFLQPSAPNAHQPIPLEKELIEHAQAKVGENLRVAIDDYPTREEFSTGHIIQSMSDKADTEIIIPQTILEFGLPYEFPEEVVKDAESFKEPSKKDIEGRIDLRDLPLVTIDGEDARDFDDAVYAEKRSGGGYRVVVAIADVSHYVRLGKPLDDEAQERGTSVYFPHFVLPMLPEALSNGLCSLNPHVDRLCMVCDLKLSRAGRVMSYEFYPSVMHSKARLTYTQVGNYFDGQTDAIPDDKNIQKSLNTLFQLYQTLKGLRAKRHAMEFETIETYMTFDELGGIKEILPRTRNEAHKLIEECMLLANVAAAEFSLQHDIPMLYRVHEAPEFSRIQKVKDFVKLLGLPFPDQPTQADYQRVIEATKDRIDAPSIHAVLLRSMMQAYYGAKNAGHYGLAYEAYTHFTSPIRRYPDLLLHRAIKAHLQQKPYPLSGAALDDAGEQFSRTERRADEASRSVTTWLKCHYMKQHLGEEFIGIISAVTEFGLFVTLKDLYVDGMIHVSQLGDDFFLYDQASQSLVGQNRGQIFGLGDEVKIKVAAVNLDERKIDFELMQQITHAGRVIRQKAPRSSKTQATEQVFNVPSETTSTQERDTRKKEKSKSKPSSYAKKSAKKSSPASVSKPVKEKKKVKVKKKKSNAKPKSE | failed
10 | QNKKSGNPILPGFHADPEVLYSHQTKRYYIYPTSDGFPGWGGSYFKVFSSKNLKTWKEETVILEMGKNVSWANGNAWAPCIEEKKIDGKYKYFFYYSANPTTNKGKQIGVAVADSPTGPFTDLGKPIITSSPTGRGQQIDVDVFTDPVSGKSYLYWGNGYMAGAELNDDMLSIKEETTVVLTPKGGTLQTYAYREAPYVIYRKGIYYFFWSVDDTGSPNYHVVYGTAQSPLGPIEVAKEPIVLIQNPKEEIYGPAHNSILQVPGKDKWYIVYHRINKNHLNDGPGWHREVCIDRMEFNPDGTIKQVIPTP | not failed
11 | MWLRRKRAPVNGVVTLDRRHLYILPTRGGIGFSVLLATMLLTSLNYAISLGFALTFLLAGIGMGCMWMAYRNLLDLRVSAGPVTPAFVGECAIFTLHVDNQDAAARIGIEARTPLSGADTETAALTLDGVSSGTLPVRLSAIRRGRLVLPRVTLSSRFPFGLFRVWSYADLGLATVVYPAPEASPPPLPRHPQSDDADDGAASFAADDGIDQLRRYRPGDPLHRIAWKHSARTGKWLTRSGHTPQQPSCWIDWNTLPPAMDTEARLSRLCAWVLMAGEVSEIGLRLPGVEITPGRGSAHVRACLEALALWPERRAR | failed
12 | MKKPVHDMRQHIIDVARSLMTNKGYTAVGLAEVLITAGVPKGSFYYYFKSKEEFGQALLEEYFSEYLGRVDALMARPGTGAERLLAYFMYWSETQGTDLPEGKCLVVKLGAEVCDLSEDMRCVLEVGTAKIIQRISACVEMGVSDGSIHPEGDHQGFAESLYQLWLGASLLVKVNKSTESFDKALNMTKRLLK | failed
13 | MIKEARLNDYMGDEVWYVPATRNMLNMLGIRTHYIDNNSTGVNIFLKEPLYVGKVVINIYGIKIEKSVREYPKIPELVRKLGINIEYLPFNYTKNESYWENLKLKIWEIAERNGFLEYETYSKFPGVYYVIPVENYERFMKELSNFSDIVVVPGYKYPDEENIHKYLNTEHPFLGKDLIALGMLANDKPLYWRLPGIIEHALIVLIVAFVSYKIARSYLATLISATFVALDPLLFATGIVAMLDIHVAFFVALFMLFLTIRRLRISGISLGLAAATKLSGAFVFPILWAKILKEEDLKEFIISGVVLPVIAFLVPEIPIIKAIGFIPWLEEFMGSFSWHLSFKGEHPAEAPFWLWFISLKPFPFHFNPDVYAVTDPILMISMIAFIFAVPYVSLRRKGLGEIFWMFWSIIGFFALQYILGGKTQFIFYATPLVPPGAVALGVISYEIIKWEYFERSVKIYMNYLRSLKEFIKR | failed
14 | MAYVSMGEAHRRITEYLNRFCDAVSYQDSSTLCRLLSFSSNSPPLLSLADALNVFQDSSSLIRQSDRFSEYGEILAHVFRSLQSYRVGNLVEAYLAFDKFANAFVQEFRNWESAWALEALYVVCYEIRVLAEKADKDLTSNGKSPEKLKAAGSLLMKVFGVLAGKGPKRVGALYVTCQLFKTYFKLGTVNLCRSVIRSIETARIFDFEEFPRRDKVTYMYYTGRLEVFNENFPAADTKLSYALQNCNPKRERNIRMILKYLVPVKLSLGIIPKDELLRNYNLHEYTKIVQALRKGDLRLLRHALQEHEDRFLRSGVYLVLEKLELQVYQRLMKKIYINQKLSDPARAHQLKLEGIAKALRWLDMDMDLDEVECIMTILIYKNLVKGYLAHKSKVVVLSKQDPFPKLNGKPVSS | failed
15 | MQGQWGYVAISFIIGIAIAFSSSVIWLTCCLVLNVFFCLYRTPRKTFFYCMIACLSGAMYTTYVQGQNNPLGDSYEATRGVIHNTPLINGDRLSFQVEDQNKNIVQLSYKMKSALEKKQMRQLHAGVSCVFEGERKEPQIARNFHGFNYRDYLYKQNIHFILDATYISECHKTSLSLVQWILLLRQQAISEVAEMFPEQSGAFMNALVFGDRQQMTFEVEEQYQQFGLVHLLAISGSHIVLLMVIVYFILLRSGVTREVATVCLIFCIPLYMILAGASPSVIRASITGVFMLIAFMCSIRLSSLDALSITAICMLIFDPYLVFNIGFQFSFVGSFALLLSTPLLLESGNGVIRNSIYISFISQLVSTPILLYHFGYFSPYSIFLNILYVPFLSLVVLSCSIVILICIPVIPFLAKRLANVLSIGLNLSNDFLSYCENLPFTRLNFGQTSILLVALYCVSIISILMVWERRMAKGILFISAGVFLFISTCHYVYPYFRESGSVTFLDVGQGDAILIRLPYDQEIYLIDTGGTILPNKEEWQRKKHEFSVGNDILIPYLQKEGIKKIDKLIITHGDADHIGAAQQLLSNITVKEVVFGRKEQDAELEKIVKKQALEKKVKIREVREGESWSINGAEFFVLAPTGKESSENNASIVMLAKLGGLTWLFTGDLEEEGEKFLVATYPELRADVLKVAHHGSNTSSTTPFLSVVQPNIAVISVGERNRYGHPHKDVIERFEKRGIEIWRTDKQGAISYVFKGENGTFRSKITYDETHNR | failed
16 | MNIGSMDIQKIGMITSYRNLAKRADWLWQQTPQQFGIWQNIQIQALSGKPDFLLMYQFDFPKDNQQTSLIDKLRQKLQNPQVNVESLLRDVPKEKIIYLLREPPLDEIVEKNKRYYQEAKKYCGYISGPDDFAPKPDYMPAIWYHNNSFRELNEMPVPEKVFPCSWITSGISRTVNHRRRLKFVELIQASEVKCDVYGRDLPIWAKSLGELGNKWYGMAPYYYNLSIENYADNDWYVSEKLWDALLAWCLPIYYGGPAADKLLPPGSFLRLPSLDEKGIAYIQEVTATPDAWYAAKDAIAEARQLILHKLNLLNWLSEFVTQFS | failed
17 | MEQLSDSDHRDSADATTSSCQSTTAEDGQCGGGGEAMARGLSAMLESVIKDFDSKALDTLNSQDELSGSLDRLVQDYAQINPIDPIKFLNHYIAIGLTKLLKN | failed

From a protein production outcome set (Wang et al. 2014)
